Results published in US20100183614A1 (COVALENT BIOSCIENCE, published 2010).

Target: gp120 of HIV strain 97ZA009 (clade C, R5) (HIV-1 strain 97ZA009)
Experiment: cell-based or functional assay

B1: scFv JL427 (scFv)
scFv: QSVLTQPPSVSGAPGQRVTISCSGSSSNFGLNYVYWYQHFPGTAPKLLIYRNDQRPLGVPARFSGSKSGTSASLAISGLRSEDEADYYCQSYDNSLSGWVFGGGTQLTVLGSSGGGGSGGGGSGGSALQVQLQQSGGGLVQPGRSLRLSCAASGFTFSSYGMHWVRQAPGKGLEWVSYIGRSGSHTNYADSVKGRFTISRDNSKNTLYLQINSLRAEDTAVYYCARGLPNYGMDIWGQGTTVTVSSGSASAPTLFPAAAHHHHHHGAAEQKLISEEDLNGAA
HIV neutralization IC50, ng/mL (97ZA009, PBMC): 300 ng/mL
